Columns and labels:
phosphatidylserine (PS) = test: FPH thrombin generation response to PS blocking by lactadherin; type: biochemical, human
Experimental: Lactadherin (Haematologic Technologies, haemtech.com) was thawed per manufacturer instructions. FPHs were incubated with lactadherin at room temperature for 30 minutes at a concentration of 0, 25, 50, 100, and 200 μg/ml. 60 mM GPRP (BACHEM, bachem.com), thrombin (Sigma Aldrich, sigmaaldrich.com) and Octoplas (Octophrama, octopharma.com) were thawed according to manufacturer's guidelines. CLARIOstarPlus was used to perform TGA. A master mix of Octaplas, PRP reagent (Diagnostica Stago, Cat. No. 86196), and GPRP was prepared in a ratio of 14:3:1, respectively. Flu substrate and Fluo-buffer were combined according to manufacturer's guidelines to create FluCa (Diagnostica Stago, stago.com). Master mix and the FluCa solution were placed in the 37° C. air incubator with agitation for 45±5 minutes. […] 10 μl of each sample was dispensed into selected wells of a 96-well plate (Corning, corning.com) by reverse pipetting. TGA dilution buffer for thrombin was used in the thrombin standard ladder. CLARIOstarPlus injectors 1 and 2 were primed with master mix and FluCa solution with 250 μl, then the injector was placed in the active position. The CLARIOstarPlus TGA program was loaded with parameters for TGA assay with injectors set to add 90 μl of master mix and 40 μl of FluCa solution to each well. Plate was inserted to be read.

[1] = tested on: phosphatidylserine (PS) surface on FPH; test: T-TAS of FPH with increasing dose of lactadherin; type: biochemical, human; settings: highest lactadherin concentration (200 μg/mL), FPH 8×10^4 cells/μl
Experimental: Cells were adjusted to 8×10^4 cells/μl by diluting in Octaplas and in preparations of either 0, 100, or 200 μg/mL of lactadherin and incubated for 30 minutes at room temperature before acquisition on T-TAS® (Zacros®, zacros.con.co.jp). Samples (480 μl) were normalized to the above counts and then transferred to microcentrifuge tubes containing 20 ul of CaCTI (CaCl2 and corn trypsin inhibitor). The CaCTI-treated samples were transferred to sample reservoirs on a T-TAS®. The sample reservoirs were then inserted into the AR microfluidic chips and acquired on the T-TAS. […] This confirms the necessity of retaining the negatively charged PS surface on FPH to generate thrombin.

B1: lactadherin: lactadherin used to block PS expression (protein, UniProt Q95114 19-427, looked up)
Lactadherin: ASGDFCDSSLCLHGGTCLLNEDRTPPFYCLCPEGFTGLLCNETEHGPCFPNPCHNDAECQVTDDSHRGDVFIQYICKCPLGYVGIHCETTCTSPLGMQTGAIADSQISASSMHLGFMGLQRWAPELARLHQTGIVNAWTSGNYDKNPWIQVNLMRKMWVTGVVTQGASRAGSAEYLKTFKVAYSTDGRQFQFIQVAGRSGDKIFIGNVNNSGLKINLFDTPLETQYVRLVPIICHRGCTLRFELLGCELNGCTEPLGLKDNTIPNKQITASSYYKTWGLSAFSWFPYYARLDNQGKFNAWTAQTNSASEWLQIDLGSQKRVTGIITQGARDFGHIQYVAAYRVAYGDDGVTWTEYKDPGASESKIFPGNMDNNSHKKNIFETPFQARFVRIQPVAWHNRITLRVELLGC
- thrombin generation of FPH (phosphatidylserine (PS); lactadherin 0, 25, 50, 100, 200 μg/ml): decreasing thrombin generation
- maximum peak time of thrombin generation of FPH (phosphatidylserine (PS); lactadherin 0-200 μg/ml, 1:64 dilution): increasing maximum peak time
- effect on time to thrombus formation of FPH [1]: approximately doubled the time to thrombus formation
